Data taken from the Human Domainome abundance scans (Beltran et al. 2025).
± gives the uncertainty stated by the source.

B1: E3 ubiquitin-protein ligase TRIM36, residues 208 to 252; numbered along this chain, Q9NQ86 (parent)
chain: KILMCPEHETERINMYCELCRRPVCHLCKLGGNHANHRVTTMSSA

Variants of: B1
Assay: abundance fitness (aPCA) (normalised: wild type 0, dead -1); higher = more abundant; growth selection in yeast, the domain comes from the species named
Details: Homo sapiens

Q: Which abundance fitness does the source give for KILMCPEHETERINMYCELCRRPVCHLCKLGGNHANHRPTTMSSA here?
A: -0.005 ± 0.053

Q: Which abundance fitness does the source give for KILMCPEHETERINMYCELCRRPVCHLCKLGGNHANHRYTTMSSA here?
A: -0.184 ± 0.1

Q: For KILMCPEHETERINMYCELCRRPVCHLCKLGGNHANHRLTTMSSA, which abundance fitness is on record?
A: -0.007 ± 0.053

Q: With KILMCPEHETERINMYCELCRRPVCHLCKLGGNHANHRETTMSSA as the variant, how does the abundance fitness read?
A: 0.037 ± 0.053

Q: For KILMCPEHETERINMYCELCRRPVCHLCKLGGNHANHRITTMSSA, which abundance fitness is on record?
A: -0.149 ± 0.24

Q: With KILMCPEHETERINMYCELCRRPVCHLCKLGGNHANHRWTTMSSA as the variant, how does the abundance fitness read?
A: -0.138 ± 0.052

Q: With KILMCPEHETERINMYCELCRRPVCHLCKLGGNHANHRMTTMSSA as the variant, how does the abundance fitness read?
A: 0.028 ± 0.072

Q: With KILMCPEHETERINMYCELCRRPVCHLCKLGGNHANHRATTMSSA as the variant, how does the abundance fitness read?
A: 0.079 ± 0.048

Q: Which abundance fitness does the source give for KILMCPEHETERINMYCELCRRPVCHLCKLGGNHANHRFTTMSSA here?
A: -0.103 ± 0.099

Q: Which abundance fitness does the source give for KILMCPEHETERINMYCELCRRPVCHLCKLGGNHANHRTTTMSSA here?
A: 0.054 ± 0.069

Q: For KILMCPEHETERINMYCELCRRPVCHLCKLGGNHANHRQTTMSSA, which abundance fitness is on record?
A: 0.008 ± 0.059

Q: With KILMCPEHETERINMYCELCRRPVCHLCKLGGNHANHRSTTMSSA as the variant, how does the abundance fitness read?
A: 0.008 ± 0.055

Q: With KILMCPEHETERINMYCELCRRPVCHLCKLGGNHANHRNTTMSSA as the variant, how does the abundance fitness read?
A: 0.057 ± 0.097

Q: Which abundance fitness does the source give for KILMCPEHETERINMYCELCRRPVCHLCKLGGNHANHRHTTMSSA here?
A: -0.023 ± 0.088

Q: Which abundance fitness does the source give for KILMCPEHETERINMYCELCRRPVCHLCKLGGNHANHRDTTMSSA here?
A: 0.079 ± 0.08

Q: Which abundance fitness does the source give for KILMCPEHETERINMYCELCRRPVCHLCKLGGNHANHRRTTMSSA here?
A: -0.064 ± 0.048

Q: With KILMCPEHETERINMYCELCRRPVCHLCKLGGNHANHRGTTMSSA as the variant, how does the abundance fitness read?
A: 0.079 ± 0.05

Q: With KILMCPEHETERINMYCELCRRPVCHLCKLGGNHANHRCTTMSSA as the variant, how does the abundance fitness read?
A: -0.079 ± 0.071

Q: For KILMCPEHETERINMYCELCRRPVCHLCKLGGNHANHRVTTMSLA, which abundance fitness is on record?
A: -0.179 ± 0.054

Q: Which abundance fitness does the source give for KILMCPEHETERINMYCELCRRPVCHLCKLGGNHANHRVTTMSAA here?
A: 0.031 ± 0.048

Q: Which abundance fitness does the source give for KILMCPEHETERINMYCELCRRPVCHLCKLGGNHANHRVTTMSFA here?
A: -0.263 ± 0.085

Q: For KILMCPEHETERINMYCELCRRPVCHLCKLGGNHANHRVTTMSNA, which abundance fitness is on record?
A: -0.038 ± 0.07

Q: For KILMCPEHETERINMYCELCRRPVCHLCKLGGNHANHRVTTMSEA, which abundance fitness is on record?
A: 0.086 ± 0.057

Q: With KILMCPEHETERINMYCELCRRPVCHLCKLGGNHANHRVTTMSDA as the variant, how does the abundance fitness read?
A: 0.069 ± 0.063

Q: Which abundance fitness does the source give for KILMCPEHETERINMYCELCRRPVCHLCKLGGNHANHRVTTMSMA here?
A: -0.138 ± 0.071

Q: For KILMCPEHETERINMYCELCRRPVCHLCKLGGNHANHRVTTMSIA, which abundance fitness is on record?
A: -0.246 ± 0.074

Q: With KILMCPEHETERINMYCELCRRPVCHLCKLGGNHANHRVTTMSCA as the variant, how does the abundance fitness read?
A: -0.208 ± 0.06

Q: Which abundance fitness does the source give for KILMCPEHETERINMYCELCRRPVCHLCKLGGNHANHRVTTMSHA here?
A: -0.119 ± 0.067

Q: For KILMCPEHETERINMYCELCRRPVCHLCKLGGNHANHRVTTMSKA, which abundance fitness is on record?
A: -0.212 ± 0.061

Q: For KILMCPEHETERINMYCELCRRPVCHLCKLGGNHANHRVHTMSSA, which abundance fitness is on record?
A: -0.146 ± 0.069

Q: For KILMCPEHETERINMYCELCRRPVCHLCKLGGNHANHRVMTMSSA, which abundance fitness is on record?
A: -0.318 ± 0.097

Q: Which abundance fitness does the source give for KILMCPEHETERINMYCELCRRPVCHLCKLGGNHANHRVKTMSSA here?
A: -0.112 ± 0.08

Q: For KILMCPEHETERINMYCELCRRPVCHLCKLGGNHANHRVITMSSA, which abundance fitness is on record?
A: -0.265 ± 0.08

Q: Which abundance fitness does the source give for KILMCPEHETERINMYCELCRRPVCHLCKLGGNHANHRVDTMSSA here?
A: 0.039 ± 0.074

Q: For KILMCPEHETERINMYCELCRRPVCHLCKLGGNHANHRVFTMSSA, which abundance fitness is on record?
A: -0.317 ± 0.11

Q: For KILMCPEHETERINMYCELCRRPVCHLCKLGGNHANHRVPTMSSA, which abundance fitness is on record?
A: 0.003 ± 0.053

Q: Which abundance fitness does the source give for KILMCPEHETERINMYCELCRRPVCHLCKLGGNHANHRVQTMSSA here?
A: -0.014 ± 0.066

Q: For KILMCPEHETERINMYCELCRRPVCHLCKLGGNHANHRVATMSSA, which abundance fitness is on record?
A: -0.027 ± 0.064

Q: With KILMCPEHETERINMYCELCRRPVCHLCKLGGNHANHRVVTMSSA as the variant, how does the abundance fitness read?
A: -0.023 ± 0.059

Q: With KILMCPEHETERINMYCELCRRPVCHLCKLGGNHANHRVNTMSSA as the variant, how does the abundance fitness read?
A: 0.141 ± 0.087

Q: For KILMCPEHETERINMYCELCRRPVCHLCKLGGNHANHRVLTMSSA, which abundance fitness is on record?
A: -0.243 ± 0.054

Q: With KILMCPEHETERINMYCELCRRPVCHLCKLGGNHANHRVYTMSSA as the variant, how does the abundance fitness read?
A: -0.191 ± 0.16

Q: Which abundance fitness does the source give for KILMCPEHETERINMYCELCRRPVCHLCKLGGNHANHRVSTMSSA here?
A: -0.025 ± 0.051

Q: For KILMCPEHETERINMYCELCRRPVCHLCKLGGNHANHRVWTMSSA, which abundance fitness is on record?
A: -0.287 ± 0.06

Q: For KILMCPEHETERINMYCELCRRPVCHLCKLGGNHANHRVRTMSSA, which abundance fitness is on record?
A: -0.089 ± 0.043

Q: Which abundance fitness does the source give for KILMCPEHETERINMYCELCRRPVCHLCKLGGNHANHRVETMSSA here?
A: -0.04 ± 0.066

Q: With KILMCPEHETERINMYCELCRRPVCHLCKLGGNHANHPVTTMSSA as the variant, how does the abundance fitness read?
A: -0.011 ± 0.058

Q: For KILMCPEHETERINMYCELCRRPVCHLCKLGGNHANHQVTTMSSA, which abundance fitness is on record?
A: 0.024 ± 0.078

Q: With KILMCPEHETERINMYCELCRRPVCHLCKLGGNHANHDVTTMSSA as the variant, how does the abundance fitness read?
A: 0.05 ± 0.069

Q: For KILMCPEHETERINMYCELCRRPVCHLCKLGGNHANHKVTTMSSA, which abundance fitness is on record?
A: -0.006 ± 0.071

Q: Which abundance fitness does the source give for KILMCPEHETERINMYCELCRRPVCHLCKLGGNHANHIVTTMSSA here?
A: -0.11 ± 0.087

Q: For KILMCPEHETERINMYCELCRRPVCHLCKLGGNHANHNVTTMSSA, which abundance fitness is on record?
A: -0.002 ± 0.08

Q: Which abundance fitness does the source give for KILMCPEHETERINMYCELCRRPVCHLCKLGGNHANHSVTTMSSA here?
A: 0.018 ± 0.073

Q: With KILMCPEHETERINMYCELCRRPVCHLCKLGGNHANHTVTTMSSA as the variant, how does the abundance fitness read?
A: 0.075 ± 0.062

Q: For KILMCPEHETERINMYCELCRRPVCHLCKLGGNHANHFVTTMSSA, which abundance fitness is on record?
A: -0.121 ± 0.1

Q: For KILMCPEHETERINMYCELCRRPVCHLCKLGGNHANHGVTTMSSA, which abundance fitness is on record?
A: 0.108 ± 0.045

Q: For KILMCPEHETERINMYCELCRRPVCHLCKLGGNHANHEVTTMSSA, which abundance fitness is on record?
A: 0.085 ± 0.061
